Reference: US20250043302A1, “MUTATED HYDROXYPHENYLPYRUVATE DIOXYGENASE POLYPEPTIDE, AND CODING GENE AND USE THEREOF” (BEIJING DABEINONG BIOTECHNOLOGY CO., LTD., priority 2021, published 2025)

Assays:
[1] = system: Arabidopsis thaliana T1 plants; experiment: Isoxaflutole tolerance of transgenic Arabidopsis thaliana T1 plants (spray, bleached leaf area grade, damage score); assay type: in vivo; details: Table 11; for Classification and statistics of the grade of pesticide damage Grade 0: number of plants at grade 0; for Classification and statistics of the grade of pesticide damage Grade 1: number of plants at grade 1; for Classification and statistics of the grade of pesticide damage Grade 2: number of plants at grade 2; for Classification and statistics of the grade of pesticide damage Grade 3: number of plants at grade 3; for Scores: pesticide damage score;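 on Scores: Weighted damage index from 0 to 100 where higher means more damage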
Description: T1 transformants were initially selected from the untransformed seeds using a glufosinate selection scheme. The Arabidopsis thaliana T1 plants (AsHPPD-02) into which the AsHPPD-02 nucleotide sequence was introduced, the Arabidopsis thaliana T1 plants (AsHPPDm-F372A-02) into which the AsHPPDm-F372A-02 nucleotide sequence was introduced, the Arabidopsis thaliana T1 plants (AsHPPDm-F383W-02) into which the AsHPPDm-F383W-02 nucleotide sequence was introduced, the Arabidopsis thaliana T1 plants (AsHPPDm-F372A-F383W-02) into which the AsHPPDm-F372A-F383W-02 nucleotide sequence was introduced, the Arabidopsis thaliana T1 plants (DBN11726N) into which the control recombinant expression vector DBN11726N was introduced, and the wild-type Arabidopsis thaliana plants (CK) (18 days after sowing) were sprayed respectively with topramezone at three concentrations (100 g ai/ha (four-fold field concentration, 4×), 200 g ai/ha (eight-fold field concentration, 8×), and 0 g ai/ha (water, 0×)), isoxaflutole at three concentrations (140 g ai/ha (two-fold field concentration, 2×), 280 g ai/ha (four-fold field concentration, 4×), and 0 g ai/ha (water, 0×)), and mesotrione at three concentrations (210 g ai/ha (two-fold field concentration, […]), 420 g ai/ha (four-fold field concentration, 4×), and 0 g ai/ha (water, 0×)), to determine the tolerance of Arabidopsis thaliana to the herbicides. The degree of damage caused by the herbicide was measured for each plant according to the proportion of bleached leaf area (the proportion of bleached leaf area=bleached leaf area/total leaf area×100%) 7 days after spraying (7 DAT): the case where there is basically no bleached phenotype is defined as grade 0, the case where the proportion of bleached leaf area is less than 50% is defined as grade 1, the case where the proportion of bleached leaf area is more than 50% is defined as grade 2, and the case where the proportion of bleached leaf area is 100% grade is defined as grade 3.
According to the method as described above in point 6 of Example 1, the aforementioned Arabidopsis thaliana T1 plants and wild-type Arabidopsis thaliana plants (CK) (18 days after sowing) were sprayed respectively with topramezone at three concentrations (25 g ai/ha (one-fold field concentration, 1×). 100 g ai/ha (four-fold field concentration, 4×), and 0 g ai/ha (water, 0×)), isoxaflutole at three concentrations (35 g ai/ha (half-fold field concentration, 0.5×). 70 g ai/ha (one-fold field concentration, 1×), and 0 g ai/ha (water, 0×)), and mesotrione at three concentrations (52.5 g ai/ha (half-fold field concentration, 0.5×), 105 g ai/ha (one-fold field concentration, 1×), and 0 g ai/ha (water, 0×)) to detect the tolerance of Arabidopsis thaliana to the herbicides.
According to the method as described above in point 6 of Example 1, the aforementioned Arabidopsis thaliana T1 plants and wild-type Arabidopsis thaliana plants (CK) (18 days after sowing) were sprayed with topramezone at three different concentrations (i.e., 100 g ai/ha (four-fold field concentration, 4×), 200 g ai/ha (eight-fold field concentration, 8×) and 0 g ai/ha (water, 0×)), isoxaflutole at three different concentrations (i.e., 140 g ai/ha (two-fold field concentration, 2×), 280 g ai/ha (four-fold field concentration, 4×) and 0 g ai/ha (water, 0×)), and mesotrione at three different concentrations (i.e., 210 g ai/ha (two-fold field concentration, 2×), 420 g ai/ha (four-fold field concentration, 4×) and 0 g ai/ha (water, 0×)) respectively to detect the herbicide tolerance of Arabidopsis thaliana. […]

[2] = system: Arabidopsis thaliana T1 plants; experiment: Mesotrione tolerance of transgenic Arabidopsis thaliana T1 plants (spray, bleached leaf area grade, damage score); assay type: in vivo; set-up: Scores: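 damage score 0-100 computed as Σ(N×S)/(T×M)×100 over grades 0-3 with higher meaning more damage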; details: Table 12; for Classification and statistics of the grade of pesticide damage Grade 0: number of plants at grade 0; for Classification and statistics of the grade of pesticide damage Grade 1: number of plants at grade 1; for Classification and statistics of the grade of pesticide damage Grade 2: number of plants at grade 2; for Classification and statistics of the grade of pesticide damage Grade 3: number of plants at grade 3; for Scores: pesticide damage score
Outline: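 Read-out: per-plant damage grade 0–3 from proportion of bleached leaf area at 7 DAT (1 <50%, 2 >50%, 3 100%). Plants were T1 transformants, glufosinate-selected, plus wild-type CK, sprayed 18 days post-sowing. Rates: topramezone 25–200, isoxaflutole 35–280, mesotrione 52.5–420 g ai/ha.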

B1: AsHPPDm-A111T-F372A-02: nucleotide sequence encoding Avena sativa HPPD with A111T+F372A; vector DBN11781 (nucleic acid)
DNA: ATGCCACCTACTCCAGCTACAGCTACTGGTGCTGCTGCTGCTGCCGTTACTCCTGAGCACGCTGCCAGGTCATTCCCCAGGGTGGTTCGCGTGAACCCCAGATCTGATAGGTTCCCAGTTCTGAGCTTCCACCATGTTGAGCTGTGGTGCGCTGATGCTGCTTCTGCTGCTGGCAGGTTCTCTTTCGCTCTTGGTGCTCCACTCGCTGCTAGATCTGATCTGTCTACAGGAAATAGCGCTCATGCCTCACTCCTGCTTCGCTCAGGTGCTTTGGCCTTCCTCTTCACCGCTCCATATGCTCCCCCACCTCAGGAGGCTGCTACTGCTGCTACTACAGCCTCCATTCCAAGCTTCTCAGCTGATGCCGCTAGAACCTTCGCTGCTGCTCATGGACTTGCCGTGAGGTCTGTTGGTGTTCGCGTGGCTGATGCTGCTGAGGCTTTCAGAGTTTCCGTTGCCGGCGGAGCTAGGCCAGCTTTCGCTCCTGCTGATTTGGGACATGGTTTCGGCCTGGCTGAGGTTGAGCTTTACGGTGACGTGGTTCTCCGCTTCGTGTCTTACCCAGATGAGACTGACCTGCCTTTCCTTCCCGGCTTCGAGAGAGTTTCCTCTCCTGGTGCCGTGGATTACGGCCTGACAAGGTTCGACCACGTGGTTGGAAACGTTCCCGAGATGGCTCCAGTGATCGATTACATGAAGGGCTTCCTTGGATTCCATGAGTTCGCCGAGTTCACTGCTGAGGACGTGGGAACCACTGAGTCCGGTTTGAACTCTGTGGTTCTCGCCAACAATTCTGAGGCTGTTTTGCTCCCTCTGAATGAGCCTGTGCATGGAACCAAGAGGAGAAGCCAGATTCAAACTTACCTGGAGTACCACGGTGGCCCTGGAGTTCAGCATATCGCCCTTGCTTCTAATGATGTGTTGCGCACACTCAGAGAGATGCGCGCCAGAACCCCCATGGGAGGTTTCGAGTTCATGGCCCCACCACAGGCTAAGTACTACGAGGGCGTTAGAAGGATTGCTGGAGACGTGTTGAGCGAGGAGCAGATCAAGGAGTGCCAAGAGCTGGGTGTTCTTGTGGATAGGGATGACCAGGGCGTTCTGCTTCAAATTGCCACTAAGCCAGTGGGCGACCGCCCTACATTCTTCCTTGAGATGATTCAAAGAATCGGCTGCATGGAGAAGGATGAGGTTGGACAGGAGTACCAAAAGGGCGGATGCGGTGGCTTCGGAAAGGGTAACTTCAGCGAGTTGTTCAAGTCAATCGAGGACTACGAGAAGAGCCTCGAGGTGAAGCAGTCAGTGGTTGCCCAAAAGTCCTGA
modifications: AsHPPDm-A111T-F372A-02 Nucleotide Sequence
notes: vector DBN11781
With B1 the Resistance evaluation ([1]; isoxaflutole 140 g ai/ha (2×)) was “Moderately”, the “Classification and statistics of the grade of pesticide damage Grade 0” value ([1]; isoxaflutole 140 g ai/ha (2×)) was 5 and the “Classification and statistics of the grade of pesticide damage Grade 1” value ([1]; isoxaflutole 140 g ai/ha (2×)) was 8. For the same molecule, the “Classification and statistics of the grade of pesticide damage Grade 2” value ([1]; isoxaflutole 140 g ai/ha (2×)) was 1, the “Classification and statistics of the grade of pesticide damage Grade 3” value ([1]; isoxaflutole 140 g ai/ha (2×)) was 2 and the Scores ([1]; isoxaflutole 140 g ai/ha (2×)) was 33. For the same molecule, the Resistance evaluation ([1]; isoxaflutole 280 g ai/ha (4×)) was “Poorly resistant”, the “Classification and statistics of the grade of pesticide damage Grade 0” value ([1]; isoxaflutole 280 g ai/ha (4×)) was 0 and the “Classification and statistics of the grade of pesticide damage Grade 1” value ([1]; isoxaflutole 280 g ai/ha (4×)) was 0. For the same molecule, the “Classification and statistics of the grade of pesticide damage Grade 2” value ([1]; isoxaflutole 280 g ai/ha (4×)) was 16, the “Classification and statistics of the grade of pesticide damage Grade 3” value ([1]; isoxaflutole 280 g ai/ha (4×)) was 0 and the Scores ([1]; isoxaflutole 280 g ai/ha (4×)) was 67. The Resistance evaluation ([2]; mesotrione 210 g ai/ha (2×)) was “Moderately”, the “Classification and statistics of the grade of pesticide damage Grade 0” value ([2]; mesotrione 210 g ai/ha (2×)) was 5 and the “Classification and statistics of the grade of pesticide damage Grade 1” value ([2]; mesotrione 210 g ai/ha (2×)) was 8. The “Classification and statistics of the grade of pesticide damage Grade 2” value ([2]; mesotrione 210 g ai/ha (2×)) was 3, the “Classification and statistics of the grade of pesticide damage Grade 3” value ([2]; mesotrione 210 g ai/ha (2×)) was 0 and the Scores ([2]; mesotrione 210 g ai/ha (2×)) was 29. The Resistance evaluation ([2]; mesotrione 420 g ai/ha (4×)) was “Poorly resistant”, the “Classification and statistics of the grade of pesticide damage Grade 0” value ([2]; mesotrione 420 g ai/ha (4×)) was 0 and the “Classification and statistics of the grade of pesticide damage Grade 1” value ([2]; mesotrione 420 g ai/ha (4×)) was 8. The “Classification and statistics of the grade of pesticide damage Grade 2” value ([2]; mesotrione 420 g ai/ha (4×)) was 7, the “Classification and statistics of the grade of pesticide damage Grade 3” value ([2]; mesotrione 420 g ai/ha (4×)) was 1 and the Scores ([2]; mesotrione 420 g ai/ha (4×)) was 52.
